Like-named read-outs stand apart in the source and are kept apart here.
Tests used:
[1] = target: HupA_(6xHis), C. difficile HupA (CD3496) with a 6x histidine tag (Clostridium difficile 630Δerm); test: cross-linking
[2] = target: HupA_(6xHis), C. difficile HupA (CD3496) with a 6x histidine tag (Clostridium difficile 630Δerm); test: cross-linking; remark: listed apart in the source
[3] = target: HupA-HaloTag (HupA fused through a GS linker to HaloTag with a C-terminal 6xHis tag) (Clostridium difficile 630Δerm); test: cross-linking
[4] = target: HupA-LgBiT (HupA fused to the large subunit of the bitLuc^opt split luciferase) (Clostridium difficile 630Δerm); test: split reporter
HupAQED6xHis = target: T1, HupAQED6xHis (Clostridium difficile 630Δerm, UniProt Q180Z4 1-92, R55Q;R58E;R61D); test: EMSA
T1 sequence: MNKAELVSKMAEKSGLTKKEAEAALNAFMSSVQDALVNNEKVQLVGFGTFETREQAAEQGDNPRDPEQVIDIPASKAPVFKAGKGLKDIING

HupA_(6xHis), C. difficile HupA (CD3496) with a 6x histidine tag (natural protein)
stoichiometry N [1]: 2 | stoichiometry N [2]: 2

HupA-HaloTag (HupA fused through a GS linker to HaloTag with a C-terminal 6xHis tag) (natural protein)
stoichiometry N [3]: 2

HupA-SmBiT (HupA fused to the small subunit of the bitLuc^opt split luciferase) (natural protein)
luciferase activity (LU/OD) after 1 h of induction [4]: 265000 LU/OD

B1: oAF65/oAF66, 28.9% G+C (dsDNA)
DNA 1: CATTAAGTATGAGTATTCTATGTATAGATCATTGATGC
DNA 2: GCATCAATGATCTATACATAGAATACTCATACTTAATG
binding result (HupAQED6xHis): no binding

B2: oAF63/oAF64, 52.6% G+C (dsDNA)
DNA 1: CATCAGGCAAGAGTAGTCACTGTGTAGCTCGTGGATGC
DNA 2: GCATCCACGAGCTACACAGTGACTACTCTTGCCTGATG
binding result (HupAQED6xHis): no binding

B3: oAF61/oAF62, 71.1% G+C (dsDNA)
DNA 1: CGCCAGGCCAGGGCTGTCACTGTGCAGCTCGTGGACGC
DNA 2: GCGTCCACGAGCTGCACAGTGACAGCCCTGGCCTGGCG
binding result (HupAQED6xHis): no binding
